Measured values: the supplement of paper PMC9170038

System: MS2 coat protein
Experiment: apparent KD of MS2 coat protein; designed switch direction (-1 OFF switch, 1 ON switch): -1; higher = weaker reporter binding
Procedure, shortened: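 The apparent KD reported per design is the median over clusters of curve fits to normalised cluster fluorescence. The RNA switches were transcribed on Illumina chips by stalled E. coli RNA polymerase. SNAP-549-labelled MS2 coat protein was titrated from 0.7 or 1.5 nM, doubling up to 3 µM, in Tris-HCl pH 7.5 buffer containing KCl, MgCl2, BSA, DTT, tRNA and Tween-20, with no input, 200 uM small-molecule ligand, or an oligonucleotide input.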

[1] = Eterna round: R95, input ligand: FMN 200 uM
[2] = Eterna round: R95, input ligand: microRNA oligo, concentration not stated
[3] = Eterna round: R95, input ligand: none
[4] = input ligand: microRNA oligo, concentration not stated

UCCCUGUCAGGAUAUACAUGAGGAUCACCCAUGUCUCUCCGACACGGGAAAAGGAACUGUAGAAGGGACAGGAU [Xezaeseris] (puzzle: Exclusion 3)
apparent KD of MS2 coat protein [1]: 0.0196 µM | apparent KD of MS2 coat protein [2]: 0.0123 µM | apparent KD of MS2 coat protein [3]: 0.0152 µM

UCCUCACAUGAGGAUCACCCAUGUCAGGAUAUCCAGUUGGGCCUCUGUAGAGGCGCCAGGAGAAGGGAUAAGGA [Ceenerso] (Eterna round: R97, puzzle: Exclusion 1)
apparent KD of MS2 coat protein (input ligand: FMN 200 uM): 0.0359 µM | apparent KD of MS2 coat protein (input ligand: none): 0.0223 µM

UCCUGACAUGAGGAUCACCCAUGUAAGGAUAUCAGCCACCCAGCAAAAGCUGGGCAAGUGAGAAGGUACACGGG [EX1 A.30] (Eterna round: R97, puzzle: Exclusion 1)
apparent KD of MS2 coat protein (input ligand: FMN 200 uM): 0.157 µM | apparent KD of MS2 coat protein (input ligand: none): 0.0306 µM

UCCUUACUGGUCAGGAUAUACAGUCGCGGGUGGGUGUAGAAGGGACAUGAGGAUCACCCAUGUACGUUACAGCC [alecazam54i] (Eterna round: R97, puzzle: Brourd's mod of Exclusion 4)
apparent KD of MS2 coat protein (input ligand: FMN 200 uM): 0.0276 µM | apparent KD of MS2 coat protein (input ligand: none): 0.0302 µM

UCGAAAUCUAACAAGCCAUACAUGAGGAUCACCCAUGUGUUCGUCAUAGCGAUCCGACAUGAUGCUCGUCGAAAUAC [Eternabot (L2) Solution 48] (Eterna round: R97, puzzle: Sensor, turn-off variant 1)
apparent KD of MS2 coat protein (input ligand: FMN 200 uM): 0.448 µM | apparent KD of MS2 coat protein (input ligand: none): 0.745 µM

UCGCGCCUAGGAUAUAUAAGGACUUUCUAGUAUGUUGCGAAACAUGAGGAUCACCCAUGUAGAAGGAGGUAGUG [Eternabot (L2) Solution 89] (Eterna round: R97, puzzle: Exclusion 2)
apparent KD of MS2 coat protein (input ligand: FMN 200 uM): 0.222 µM | apparent KD of MS2 coat protein (input ligand: none): 0.0773 µM

UCGCUCCGUGUAGGAUAUCGUUGUACCCUGCGGCGAGAAGGACAUGAGGAUCACCCAUGUAUGUUAUUAUCACGCGUGGCGCAC [Design 70] (Eterna round: R96, puzzle: Exclusion NG 1)
apparent KD of MS2 coat protein (input ligand: FMN 200 uM): 0.0154 µM | apparent KD of MS2 coat protein [4]: 0.0155 µM | apparent KD of MS2 coat protein (input ligand: none): 0.0216 µM

UCGCUGCGAGGAUAUACAUGAGGAUCACCCAUGUACGGGUCCGGGUCUUAGUUGAUUGGUAGAAGGCGCAGUGA [JL Laongeedie mod 11] (puzzle: Exclusion 3)
apparent KD of MS2 coat protein [2]: 0.0847 µM

UCGGCGCGAGGAUAUACGUUUGCGCGUUUUCGUUUGCGCGUACAUGAGGAUCACCCAUGUAGAAGGCGCGCGGC [Apr-15 SS2-13] (puzzle: Exclusion 2)
apparent KD of MS2 coat protein [2]: 0.0115 µM

UCGGCGCGAGGAUAUGCGGCUGGUGCUUCGGGCCCUGGCGUACAUGAGGAUCACCCAUGUAGAAGGCGCGCCGC [Apr-15 SS2-41] (puzzle: Exclusion 2)
apparent KD of MS2 coat protein [2]: 0.0102 µM

UCGGCGCGAGGAUAUGCGGUUUGUGCUUUGGGCCCUGGCGUACAUGAGGAUCACCCAUGUAGAAGGCGCGCCGC [Apr-15 SS2-47] (puzzle: Exclusion 2)
apparent KD of MS2 coat protein [2]: 0.0159 µM

UCGUGGUUACGCUGCAGUUGCCUGAGCGGAGGCUCUGUGACAUGAGGAUCACCCAUGUAGCUUUUUGCUCAUCUUAA [JR_SV3TOV2_Sub040] (puzzle: Sensor v3, turn-off variant 2)
apparent KD of MS2 coat protein [1]: 0.0252 µM | apparent KD of MS2 coat protein [2]: 0.0399 µM | apparent KD of MS2 coat protein [3]: 0.0246 µM

UCGUUUCGUGUAGGAUAUUGGCCUGCUCUGGGUCGAGAAGGACAUGAGGAUCACCCAUGUAUGUUAUUAUCACGCGUGGCGCAU [Design 82] (Eterna round: R96, puzzle: Exclusion NG 1)
apparent KD of MS2 coat protein (input ligand: FMN 200 uM): 0.124 µM | apparent KD of MS2 coat protein [4]: 0.034 µM | apparent KD of MS2 coat protein (input ligand: none): 0.0366 µM

UCUACGUCAGGAUAUACAAGCGGUGCUCUGAUGCUGUCCAGACAUGAGGAUCACCCAUGUAGAAGGGACGACAA [Eternabot (L1) Solution 68] (Eterna round: R97, puzzle: Exclusion 2)
apparent KD of MS2 coat protein (input ligand: FMN 200 uM): 0.0426 µM | apparent KD of MS2 coat protein (input ligand: none): 0.365 µM

UCUCAGUCAGGAUAUCGUUAAUUUAAUUGUUUGUAUUAGUUCGAGAAGGGACAUGAGGAUCACCCAUGUACUCU [Ex4 #18] (Eterna round: R97, puzzle: Exclusion 4)
apparent KD of MS2 coat protein (input ligand: FMN 200 uM): 0.0298 µM | apparent KD of MS2 coat protein (input ligand: none): 0.0188 µM

UCUCUUGGGCAAGGAUAUCCUGCGCGGUUCCGGUUCGUGUCUGUCACAUGAGGAUCACCCAUGUGGGAGAAGGUGCCUGCGGUC [Design 77] (Eterna round: R96, puzzle: Exclusion NG 2)
apparent KD of MS2 coat protein (input ligand: FMN 200 uM): 0.0245 µM | apparent KD of MS2 coat protein [4]: 0.012 µM | apparent KD of MS2 coat protein (input ligand: none): 0.0167 µM

UCUUAACAUGAGGAUCACCCAUGUGAGGAUAUGAUGCAGCAGUGGUCUACGCUGUGCAUCAGAAGGUACAUGGG (puzzle: Exclusion 1)
apparent KD of MS2 coat protein [2]: 0.0268 µM

UCUUACUGAGGAUAUACUUAGAUUUACAUGAGGAUCACCCAUGUUCCUCUAUGUAUAUAUGUAGAAGGCAGAAGAU [Mat - Exclusion 5 - JL Mod - D47] (Eterna round: R97, puzzle: Exclusion 5)
apparent KD of MS2 coat protein (input ligand: FMN 200 uM): 0.292 µM | apparent KD of MS2 coat protein (input ligand: none): 0.0356 µM

UCUUAUUGCAAGGAUAUGCAAAUUAUUAUUAAUGCAGAAGGUGCUACAUGAGGAUCACCCAUGUUUCCGGGUUU [JR_E6_Sub042] (puzzle: Exclusion 6)
apparent KD of MS2 coat protein [2]: 0.0433 µM

UCUUCACAUGAGGAUCACCCAUGUGAGGAUAUGGUUUCGCUGGCCGUAGCCAGUGGAACCAGAAGGCGCGUGAU [Mat - Exclusion 1 - JL Mod - D23] (Eterna round: R97, puzzle: Exclusion 1)
apparent KD of MS2 coat protein (input ligand: FMN 200 uM): 0.0896 µM | apparent KD of MS2 coat protein (input ligand: none): 0.0735 µM

UCUUGUUGUCCGUGAGAAUACAUGAGGAUCACCCAUGUUAGUUUGAUUAUGAUGUGUAAGUUUGUUGCUCGUUUUAU [JR_STOV1_Sub070] (Eterna round: R97, puzzle: Sensor, turn-off variant 1)
apparent KD of MS2 coat protein (input ligand: FMN 200 uM): 0.0364 µM | apparent KD of MS2 coat protein (input ligand: none): 0.0413 µM

UGACAGGAGUAGGAUAUGCCCACCGUCCGACUGGCAGAAGGACUCACAUGAGGAUCACCCAUGUAGUUAUGUAC [Eternabot (L2) Solution 96] (Eterna round: R97, puzzle: Exclusion 6)
apparent KD of MS2 coat protein (input ligand: FMN 200 uM): 0.0201 µM | apparent KD of MS2 coat protein (input ligand: none): 0.016 µM

UGACAGGCUAGACGAACAAACAUGAGGAUCACCCAUGUCAUUCCAUGUCUGCGUCAUAAGUAGAUGCUCGUAUAUCG [Eternabot (Original) Solution 33] (Eterna round: R97, puzzle: Sensor, turn-off variant 1)
apparent KD of MS2 coat protein (input ligand: FMN 200 uM): 0.0166 µM | apparent KD of MS2 coat protein (input ligand: none): 0.0181 µM

UGACCUAAAGGAUAUACAUGAGGAUCACCCAUGUCUUCAGCUGCCGUAAGGGAUCUUAGUAGAAGGUUAGGUCG [Eternabot (L1) Solution 43] (Eterna round: R97, puzzle: Exclusion 3)
apparent KD of MS2 coat protein (input ligand: FMN 200 uM): 1.36 µM | apparent KD of MS2 coat protein (input ligand: none): 0.084 µM

UGAGAACUGCGAGGAUAUACAUGAGGAUCACCCAUGUAAUAGUGUGAGGCUUUGCCUCACACAAUGUAGAAGGCGCAGUUCUCU [Mat - Exclusion NG 2 - Mod of JL - D7] (Eterna round: R96, puzzle: Exclusion NG 2)
apparent KD of MS2 coat protein (input ligand: FMN 200 uM): 0.0184 µM | apparent KD of MS2 coat protein [4]: 0.0101 µM | apparent KD of MS2 coat protein (input ligand: none): 0.0119 µM

UGAGACUGAGGAUAUACUGGCCCAUAAAGUGGGUCGUGGGUACAUGAGGAUCACCCAUGUAGAAGGCAGCCUCG [Omei Repeat Sequence v6] (Eterna round: R97, puzzle: Exclusion 2)
apparent KD of MS2 coat protein (input ligand: FMN 200 uM): 0.656 µM | apparent KD of MS2 coat protein (input ligand: none): 0.0554 µM

UGAGACUGAGGAUAUACUUGCCCAUAAAGUGGGUAGUGGGUACAUGAGGAUCACCCAUGUAGAAGGCAGCCUCG [Omei Repeat Sequence v3] (Eterna round: R97, puzzle: Exclusion 2)
apparent KD of MS2 coat protein (input ligand: FMN 200 uM): 0.597 µM | apparent KD of MS2 coat protein (input ligand: none): 0.0463 µM

UGAGAGUGAGGAUAUACGUCGCUGGUCCAGAUGGACGCAUGACAUGAGGAUCACCCAUGUAGAAGGCAUUUCCC [Enxela Mod 8 - Jieux - Exclusion 2] (Eterna round: R97, puzzle: Exclusion 2)
apparent KD of MS2 coat protein (input ligand: FMN 200 uM): 0.0619 µM | apparent KD of MS2 coat protein (input ligand: none): 0.0284 µM

UGAGUCUAAGGAUAUCUGAGGCGCGACAUGAGGAUCACCCAUGUCUCCAAGGAGAGAGCUGGAGAAGGUAGCUGGA [Eternabot (L2) Solution 81] (Eterna round: R97, puzzle: Exclusion 5)
apparent KD of MS2 coat protein (input ligand: FMN 200 uM): 0.0175 µM | apparent KD of MS2 coat protein (input ligand: none): 0.0186 µM

UGAGUGCUGCGAGGAUAUACAUGAGGAUCACCCAUGUAAUCGUGUGAGGCAAAGCCUCACACGAAGUAGAAGGCGCAGUACUCA [Mat - Exclusion NG 2 - Mod of JL - D18] (Eterna round: R96, puzzle: Exclusion NG 2)
apparent KD of MS2 coat protein (input ligand: FMN 200 uM): 0.0157 µM | apparent KD of MS2 coat protein [4]: 0.0124 µM | apparent KD of MS2 coat protein (input ligand: none): 0.0186 µM

UGAGUGCUGCGAGGAUAUACAUGAGGAUCACCCAUGUAAUCGUGUGAGGCUUUGCCUCACACGAAGUAGAAGGCGCAGUACUCU [JL ENG2 1.10] (Eterna round: R96, puzzle: Exclusion NG 2)
apparent KD of MS2 coat protein (input ligand: FMN 200 uM): 0.012 µM | apparent KD of MS2 coat protein [4]: 0.00984 µM | apparent KD of MS2 coat protein (input ligand: none): 0.0135 µM

UGAGUGCUGCGAGGAUAUACAUGAGGAUCACCCAUGUGGAUCUGUGAGGCUUUGCCUCACAGGAUGUAGAAGGCGCAGUACUCU [JL ENG2 1.19] (Eterna round: R96, puzzle: Exclusion NG 2)
apparent KD of MS2 coat protein (input ligand: FMN 200 uM): 0.156 µM | apparent KD of MS2 coat protein [4]: 0.0178 µM | apparent KD of MS2 coat protein (input ligand: none): 0.0274 µM

UGAGUGCUGCGAGGAUAUACAUGAGGAUCACCCAUGUGGUCCUGUGAGGCUUUGCCUCACAGGAUGUAGAAGGCGCAGUACUCU [JL ENG2 1.18] (Eterna round: R96, puzzle: Exclusion NG 2)
apparent KD of MS2 coat protein (input ligand: FMN 200 uM): 0.0829 µM | apparent KD of MS2 coat protein [4]: 0.0138 µM | apparent KD of MS2 coat protein (input ligand: none): 0.0174 µM

UGAGUGCUGCGAGGAUAUACAUGAGGAUCACCCAUGUUUUCCUGUGAGGCUUUGCCUCACAGGAUGUAGAAGGCGCAGUACUCU [JL ENG2 1.14] (Eterna round: R96, puzzle: Exclusion NG 2)
apparent KD of MS2 coat protein (input ligand: FMN 200 uM): 0.00913 µM | apparent KD of MS2 coat protein [4]: 0.00733 µM | apparent KD of MS2 coat protein (input ligand: none): 0.0121 µM
